To fix the notation:
B1: Hairpin Ribozyme (parent)
chain: GUCCUCUUUCACGUGCGCGUGAAAGAGAGAAGUGAACCAGAGAAACACACGUUGUGGUAUAUUACCUGGUA

The data set covers variants of B1. Kind of data set: self-cleavage, relative activity (ratio to wild type); higher = more cleavage; co-transcriptional.
As to C12U C48A, the self-cleavage is 0.107.
Then G13U G27C, with 0.19.
Next, C12U A71G: 0.797; C12U C18G: 0.832.
C12U C18U: the self-cleavage is 0.978.
Next, G13U A28U: 0.546.
Next, G13U A28G: 0.725.
Then U14A A44U, with 0.118; and G13A A41C, with 1.04.
As for G13C C46U, the self-cleavage came out at 0.218.
Next, G13C C46A: 0.137; C12G C48U: 0.193.
As to C12G C48G, the self-cleavage is 0.0599.
Then G13A G56U, with 0.137; and C12U A35U, with 0.743; and G13C G34A, with 0.915.
Next, C12G G57A: 0.152.
Next, G13C G40U: 0.158; G13C U53A: 0.747; C12U C37A: 0.282.
For the variant C12G G32A, the self-cleavage is 0.143.
Next, C12U C65G: 0.2; C12U C65U: 0.348; C12U C65A: 0.88.
On to C12U G32U, for which the self-cleavage is 0.082.
Take G13C U55A: the self-cleavage stood at 0.196.
Then C12U A64G, with 0.564; and C12U A64U, with 0.241; and U14A G42C, with 0.281.
Then U14A G42U, with 0.308; and U14A G51U, with 0.925.
Next, G13U C65A: 0.845; G13C U60A: 0.579.
As to C12U U55C, the self-cleavage worked out at 0.218.
Then C12U U55G, with 0.181.
Consider G13U G54U, for which the self-cleavage amounted to 0.588.
As for C12U A41U, the self-cleavage was 0.928.
Regarding G13U U52C, the self-cleavage turned out to be 0.655.
Next, C12U U14C: 1.05.
Then G13U A41C, with 0.91; and U14A A49U, with 0.13.
Next, C12G U70C: 0.699.
On to G13A U14G, for which the self-cleavage was determined as 0.538.
On to G13A U14C, for which the self-cleavage came to 0.855.
As for G13A U14A, the self-cleavage was 0.99.
For the variant C12G C50G, the self-cleavage was determined as 0.176.
Consider G13U A36G, for which the self-cleavage was 0.65.
Next, G13C A24C: 0.466; C12U G15C: 0.897.
Then G13A A35C, with 0.739; and C12G G13C, with 0.944; and C12G G13U, with 0.561.
For G13A U53A, the self-cleavage worked out at 0.856.
Then C12G U52A, with 0.922; and U14A A59C, with 0.179.
For the variant C12U A26C, the self-cleavage came out at 0.481.
Then C12U A26U, with 0.591; and C12U A26G, with 0.796; and G13U A26G, with 0.675.
Next, C12G G54U: 0.537; C12G G54C: 0.246.
Then C12U G19A, with 1.02.
As to G13U U55C, the self-cleavage is 0.254.
As to G13U U55A, the self-cleavage was 0.263.
Next, U14A A71G: 1.08; G13C G32C: 0.123.
Then G13A G42A, with 0.194.
Next, G13C G54C: 0.161.
Take G13C G54A: the self-cleavage is 0.368.
As to G13C U20A, the self-cleavage was 0.492.
Next, G13C U20G: 0.531; G13C U20C: 0.785; C12G U20G: 0.798.
Then U14A A35C, with 0.998; and U14A A35G, with 0.956.
Then G13U U67C, with 0.211; and G13A U67C, with 0.27; and G13A U67A, with 0.27.
In the case of C12U G42U, the self-cleavage stood at 0.355.
Consider C12U G42A, for which the self-cleavage amounted to 0.149.
Then G13A U62C, with 0.242; and U14C A59C, with 0.0922.
Then G13A A23G, with 0.767; and U14C A30G, with 0.116.
Next, U14C A30U: 0.148; C12G C66A: 0.171.
For the variant C12U U62G, the self-cleavage was found to be 0.235.
Next, C12G U33A: 0.0646; G13C C18A: 0.932; U14A C65U: 0.292.
Then U14A C65G, with 0.323; and G13U G51A, with 0.745.
For the variant C12U C38A, the self-cleavage was 0.143.
Next, U14A A43C: 0.15.
Then C12U G56A, with 0.177.
For the variant G13A G15A, the self-cleavage came to 0.839.
Next, U14A C18U: 0.924; G13U G68C: 0.19; G13U C16U: 0.818.
Then G13C A44C, with 0.281.
Then G13C A44U, with 0.137; and C12U A23G, with 0.965; and C12U A23U, with 0.807.
Take G13U U62C: the self-cleavage stood at 0.291.
For G13U U62G, the self-cleavage came to 0.102.
Next, C12U U63A: 0.249; U14A U63C: 0.212.
Then U14A U52A, with 1.03; and U14C A45G, with 0.0672.
Then U14C A45C, with 0.206; and C12U U33A, with 0.205.
Take C12U U33G: the self-cleavage was determined as 0.207.
As for U14C A47G, the self-cleavage came out at 0.118.
Then C12U A59G, with 0.116; and C12U A59U, with 0.182; and U14A G68C, with 0.25.
Next, G13A A71U: 0.746.
Then U14C A44C, with 0.241; and U14C A44U, with 0.0783.
On to C12G U62G, for which the self-cleavage is 0.21.
Regarding G13C G17U, the self-cleavage worked out at 0.492.
On to C12U A39G, for which the self-cleavage was found to be 0.297.
Next, G13A C50A: 0.284.
Consider U14A U58C, for which the self-cleavage came out at 0.78.
In the case of U14A U58A, the self-cleavage worked out at 0.792.
For the variant U14A U58G, the self-cleavage worked out at 0.505.
In the case of G13C U67G, the self-cleavage was found to be 0.281.
G13C U67C: the self-cleavage is 0.126.
For the variant U14C A35C, the self-cleavage was 0.687.
Next, G13U A44U: 0.147; U14C A23U: 1.09.
As to G13C U14A, the self-cleavage was found to be 0.688.
As to G13C U14G, the self-cleavage came out at 0.688.
Next, U14A C48U: 0.123.
U14A G29A: the self-cleavage is 0.227.
Next, C12G U55C: 0.216.
Take C12G U55G: the self-cleavage was determined as 0.322.
Turning to C12U U58C, the self-cleavage came out at 1.
Then G13U A45G, with 0.0663; and U14A U55G, with 0.179.
Then U14A G19C, with 0.819; and U14A G19U, with 0.736; and U14A U20A, with 0.67.
Next, G13C C65G: 0.256; G13C C65A: 0.726.
In the case of C12G U14C, the self-cleavage stood at 0.61.
Then G13A A30U, with 0.113.
On to G13A A30C, for which the self-cleavage is 0.0871.
Take U14C A41C: the self-cleavage turned out to be 1.18.
Turning to U14C A41G, the self-cleavage was 0.678.
Next, G13C A71G: 0.823.
For U14A G17C, the self-cleavage came out at 0.472.
Then C12U A61C, with 0.24.
Then C12U U53A, with 0.974; and C12U U53G, with 0.677; and C12U U60A, with 0.766.
Consider G13C A26G, for which the self-cleavage amounted to 0.492.
Then C12U G21A, with 0.748; and G13U A23G, with 0.675.
Then C12G U63C, with 0.296; and G13C G15U, with 0.695.
Take U14C A28G: the self-cleavage worked out at 0.65.
Next, U14A A36G: 0.864.
Then G13A C46A, with 0.124; and G13A C46G, with 0.0618; and U14A C66A, with 0.0937.
Next, C12U A24G: 0.892.

These data come from the RNAGym collection of RNA variant scans (doi:10.7554/elife.80360).
